Measurements from patent publication US20210386837A1, “ACTIVE LOW MOLECULAR WEIGHT VARIANTS OF ANGIOTENSIN CONVERTING ENZYME 2 (ACE2) FOR THE TREATMENT OF DISEASES AND CONDITIONS OF THE EYE” (Northwestern University, priority 2020, published 2021).
“Also recorded” adds a separate entry of the source.

Experiments:
Angiotensin II [1] = assay: enzymatic activity of ACE2 truncates; format: biochemical
Angiotensin II [2] = conditions: as disclosed in U.S. Pat. No. 10,443,049; cited from earlier work
hTCEpi cells = assay: RT-qPCR of inflammation-related genes in siACE2-transfected hTCEpi cells treated with losartan; format: cell-based; conditions: 100 μM losartan, 24 hours
Protocol: To examine if ACE2 deficiency-induced cytokine production is due to an increase in AngII activity, we investigated whether treatment of corneal epithelial cells with the AngII type 1 receptor (AT1R) antagonist, losartan could rescue the phenotype. hTCEpi deficient in ACE2 were treated with 100 μm losartan for 24 hrs and the cytokine response was evaluated.
Immortalized corneal epithelial cells, hTCEpi, were cultured in keratinocyte serum free media (Thermo Fisher Scientific, Waltham, Mass., USA) as described before^39. For siRNA knock-down experiments, cells were transfected with 10 nM siRNA SMARTpools against ACE2 and non-target control (GE Dharmacon, Colorado, USA) as previously described^37. Two days after transfection, cells were treated with losartan (100 μM) for 24 hours, and processed for total RNA isolation.
Total RNAs were isolated from hTCEpi cells and purified with a miRNeasy kit (Qiagen, Hilden, Germany). Real-time qPCR (RT-qPCR) was performed with a Roche LightCycler 96 System using the Roche FastStart Essential DNA Green Master (Roche, Branchburg, N.J., USA) according to the manufacturer's instructions.
Unpaired t-test were performed to determine statistical significance. The data are shown as means±standard deviation (SD). The differences were considered significant for p values of <0.05. All experiments were replicated at least three times.

[3] = ACE2 activity in eyes of ACE2-knockout mice after topical corneal application; format: in vivo, mouse; conditions: ACE2-KO mice, after one hour; for ACE2 activity in eyes: topical to cornea, 5 μg/μl in PBS or in 0.5% DMSO in PBS, vs untreated
Protocol: ACE2 activity was assessed in eyes isolated from ACE2-deficient mice.

[4] = duration of action in vivo after one injection (enzymatic activity in plasma, blood pressure); conditions: determined by enzymatic activity in plasma and by biologic response (blood pressure)
[5] = anti-ACE2 immunofluorescence of cornea of ACE2-KO mice after NaOH treatment and topical administration; format: in vivo, mouse; conditions: cornea treated with NaOH for 30 s, then topical administration
Protocol: The corneas of ACE2-KO mice were treated with NaOH for 30 s and then were topically administered ACE2 1-618-ABD. The cornea were subjected to immunofluorescence using anti-ACE2 antibodies. (See FIG. 13).

Compound: 1-522: ACE2 truncate, amino acids 1-522, not enzymatically active [Group 1-522]
- enzyme activity of ACE2 truncate (Angiotensin II [1]): not active

Compound: 1-605: ACE2 truncate, amino acids 1-605, C-terminal deletion relative to SEQ ID NO:1 [Group 1-605]
- enzymatic activity of ACE2 fragment (Angiotensin II [2]): very high enzymatic activity
- enzyme activity of ACE2 truncate (Angiotensin II [1]): enzymatically active

Compound: 1-618: ACE2 truncate, human ACE2 amino acids 1-618 [Group 1-618]
- enzyme activity of ACE2 truncate (Angiotensin II [1]): enzymatically active

Compound: 1-619: ACE2 truncate, amino acids 1-619, C-terminal deletion relative to SEQ ID NO:1 [Group 1-619]
- enzymatic activity of ACE2 fragment (Angiotensin II [2]): very high enzymatic activity
- enzyme activity of ACE2 truncate (Angiotensin II [1]): enzymatically active

Compound: CCCCc1nc(Cl)c(CO)n1Cc1ccc(-c2ccccc2-c2nn[nH]n2)cc1 [losartan]
- pro-inflammatory activity / cytokine storm-like phenotype in ACE2 depleted corneal epithelial cells (hTCEpi cells): partially rescued
- expression of CCL2 (hTCEpi cells; RT-qPCR): decreased; also recorded: significantly blocked
- expression of CXCL8 (hTCEpi cells; RT-qPCR): only slightly altered
- expression of IL1B (hTCEpi cells; RT-qPCR): only slightly altered
- expression of ILIA (hTCEpi cells; RT-qPCR): decreased; also recorded: significantly blocked
- expression of TNFA (hTCEpi cells; RT-qPCR): decreased; also recorded: significantly blocked
- pro-inflammatory activity / cytokine storm-like phenotype in ACE2 depleted corneal epithelial cells (hTCEpi cells; listed as Losartan): partially reverse

Compound: ACE2 1-618ABD: human ACE2 amino acids 1-618 fused to albumin binding domain (ABDCon) via a GS4 linker
- effect of DMSO on detectable ACE2 activity in eyes ([3]; 5 μg/μl in 0.5% DMSO in PBS vs in PBS): enhance detectable ACE2 activity
- ACE2 activity in eyes [3]: Detectable ACE2 activity was observed
- ACE2 activity in eyes ([3]; listed as hr ACE2 1-618ABD): Recovery of ACE2 activity
- duration of action of one injection [4]: at least 4 days
- ACE2 staining by immunofluorescence in the cornea [5]: Appearance of ACE2 staining
